Measurements taken from patent US12679878B2, “CRF2 receptor agonists and their use in therapy” (SANOFI, priority 2020, dated 2026).
Starred links: 1 amine or outer side, 2 acyl side, 3 side chain; linkers in the order of their positions; H or OH if unused. Non-standard residues stand in square brackets, D forms with d. Groups on a side chain read outwards from the residue. No end group written: not given here. *: point of attachment. C20 diacid = O=C(O)CCCCCCCCCCCCCCCCCCC(=O)*; C18 diacid = O=C(O)CCCCCCCCCCCCCCCCC(=O)*; γGlu = O=C(O)[C@H](CCC(=O)[*:2])N[*:1]; Palmitoyl = CCCCCCCCCCCCCCCC(=O)*; AEEA = NCCOCCOCC(=O)O; Aib = CC(C)(N)C(=O)O

Target: human corticotropin-releasing factor 2α (CRF2 α receptor) (human), Q13324
Assay: cell-based or functional assay

Sequence of human corticotropin-releasing factor 2α (CRF2 α receptor) (human), Q13324 (Q13324 20-411): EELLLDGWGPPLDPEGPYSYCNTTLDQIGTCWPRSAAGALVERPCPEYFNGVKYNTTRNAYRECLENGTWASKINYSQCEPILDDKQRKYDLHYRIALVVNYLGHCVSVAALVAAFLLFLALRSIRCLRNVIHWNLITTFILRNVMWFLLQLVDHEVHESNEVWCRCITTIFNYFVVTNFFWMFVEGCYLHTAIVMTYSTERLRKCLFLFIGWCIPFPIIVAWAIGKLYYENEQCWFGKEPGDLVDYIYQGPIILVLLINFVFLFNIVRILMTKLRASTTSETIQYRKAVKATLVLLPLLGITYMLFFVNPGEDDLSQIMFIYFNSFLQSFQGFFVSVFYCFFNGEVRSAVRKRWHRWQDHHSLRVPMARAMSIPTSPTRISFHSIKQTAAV

| EC50 [nM], 0% HSA | EC50 [nM], 0.1% HSA | Binder |
| --- | --- | --- |
| 0.9 nM | 92.5 nM | IVLSLDVPTKLK([AEEA-AEEA-γGlu-C20 diacid])QILLEQERQKKQREQAETN[Aib]QILAQV-NH2 (N-terminus assumed; SMILES CC[C@H](C)[C@H](N)C(=O)N[C@H](C(=O)N[C@@H](CC(C)C)C(=O)N[C@@H](CO)C(=O)N[C@@H](CC(C)C)C(=O)N[C@@H](CC(=O)O)C(=O)N[C@H](C(=O)N1CCC[C@H]1C(=O)N[C@H](C(=O)N[C@@H](CCCCN)C(=O)N[C@@H](CC(C)C)C(=O)N[C@@H](CCCCNC(=O)COCCOCCNC(=O)COCCOCCNC(=O)CC[C@H](NC(=O)CCCCCCCCCCCCCCCCCCC(=O)O)C(=O)O)C(=O)N[C@@H](CCC(N)=O)C(=O)N[C@H](C(=O)N[C@@H](CC(C)C)C(=O)N[C@@H](CC(C)C)C(=O)N[C@@H](CCC(=O)O)C(=O)N[C@@H](CCC(N)=O)C(=O)N[C@@H](CCC(=O)O)C(=O)N[C@@H](CCCNC(=N)N)C(=O)N[C@@H](CCC(N)=O)C(=O)N[C@@H](CCCCN)C(=O)N[C@@H](CCCCN)C(=O)N[C@@H](CCC(N)=O)C(=O)N[C@@H](CCCNC(=N)N)C(=O)N[C@@H](CCC(=O)O)C(=O)N[C@@H](CCC(N)=O)C(=O)N[C@@H](C)C(=O)N[C@@H](CCC(=O)O)C(=O)N[C@H](C(=O)N[C@@H](CC(N)=O)C(=O)NC(C)(C)C(=O)N[C@@H](CCC(N)=O)C(=O)N[C@H](C(=O)N[C@@H](CC(C)C)C(=O)N[C@@H](C)C(=O)N[C@@H](CCC(N)=O)C(=O)N[C@H](C(N)=O)C(C)C)[C@@H](C)CC)[C@@H](C)O)[C@@H](C)CC)[C@@H](C)O)C(C)C)C(C)C) [SEQ ID NO: 80] |
| 10.6 nM | – | IVLSLDVPTKLK([AEEA-AEEA-γGlu-C18 diacid])QILLEQERQKKQREQAETN[Aib]QILAQV-NH2 (N-terminus assumed; SMILES CC[C@H](C)[C@H](N)C(=O)N[C@H](C(=O)N[C@@H](CC(C)C)C(=O)N[C@@H](CO)C(=O)N[C@@H](CC(C)C)C(=O)N[C@@H](CC(=O)O)C(=O)N[C@H](C(=O)N1CCC[C@H]1C(=O)N[C@H](C(=O)N[C@@H](CCCCN)C(=O)N[C@@H](CC(C)C)C(=O)N[C@@H](CCCCNC(=O)COCCOCCNC(=O)COCCOCCNC(=O)CC[C@H](NC(=O)CCCCCCCCCCCCCCCCC(=O)O)C(=O)O)C(=O)N[C@@H](CCC(N)=O)C(=O)N[C@H](C(=O)N[C@@H](CC(C)C)C(=O)N[C@@H](CC(C)C)C(=O)N[C@@H](CCC(=O)O)C(=O)N[C@@H](CCC(N)=O)C(=O)N[C@@H](CCC(=O)O)C(=O)N[C@@H](CCCNC(=N)N)C(=O)N[C@@H](CCC(N)=O)C(=O)N[C@@H](CCCCN)C(=O)N[C@@H](CCCCN)C(=O)N[C@@H](CCC(N)=O)C(=O)N[C@@H](CCCNC(=N)N)C(=O)N[C@@H](CCC(=O)O)C(=O)N[C@@H](CCC(N)=O)C(=O)N[C@@H](C)C(=O)N[C@@H](CCC(=O)O)C(=O)N[C@H](C(=O)N[C@@H](CC(N)=O)C(=O)NC(C)(C)C(=O)N[C@@H](CCC(N)=O)C(=O)N[C@H](C(=O)N[C@@H](CC(C)C)C(=O)N[C@@H](C)C(=O)N[C@@H](CCC(N)=O)C(=O)N[C@H](C(N)=O)C(C)C)[C@@H](C)CC)[C@@H](C)O)[C@@H](C)CC)[C@@H](C)O)C(C)C)C(C)C) [SEQ ID NO: 78] |
| 0.14 nM | 18.5 nM | IVLSLDVPIKLK([AEEA-AEEA-γGlu-C20 diacid])QILLEQEKQK[Aib]QREQAETNKQILAQV-NH2 (N-terminus assumed; SMILES CC[C@H](C)[C@H](N)C(=O)N[C@H](C(=O)N[C@@H](CC(C)C)C(=O)N[C@@H](CO)C(=O)N[C@@H](CC(C)C)C(=O)N[C@@H](CC(=O)O)C(=O)N[C@H](C(=O)N1CCC[C@H]1C(=O)N[C@H](C(=O)N[C@@H](CCCCN)C(=O)N[C@@H](CC(C)C)C(=O)N[C@@H](CCCCNC(=O)COCCOCCNC(=O)COCCOCCNC(=O)CC[C@H](NC(=O)CCCCCCCCCCCCCCCCCCC(=O)O)C(=O)O)C(=O)N[C@@H](CCC(N)=O)C(=O)N[C@H](C(=O)N[C@@H](CC(C)C)C(=O)N[C@@H](CC(C)C)C(=O)N[C@@H](CCC(=O)O)C(=O)N[C@@H](CCC(N)=O)C(=O)N[C@@H](CCC(=O)O)C(=O)N[C@@H](CCCCN)C(=O)N[C@@H](CCC(N)=O)C(=O)N[C@@H](CCCCN)C(=O)NC(C)(C)C(=O)N[C@@H](CCC(N)=O)C(=O)N[C@@H](CCCNC(=N)N)C(=O)N[C@@H](CCC(=O)O)C(=O)N[C@@H](CCC(N)=O)C(=O)N[C@@H](C)C(=O)N[C@@H](CCC(=O)O)C(=O)N[C@H](C(=O)N[C@@H](CC(N)=O)C(=O)N[C@@H](CCCCN)C(=O)N[C@@H](CCC(N)=O)C(=O)N[C@H](C(=O)N[C@@H](CC(C)C)C(=O)N[C@@H](C)C(=O)N[C@@H](CCC(N)=O)C(=O)N[C@H](C(N)=O)C(C)C)[C@@H](C)CC)[C@@H](C)O)[C@@H](C)CC)[C@@H](C)CC)C(C)C)C(C)C) [SEQ ID NO: 81] |
| 10.1 nM | – | IVLSLDVPTKLK([AEEA-AEEA-γGlu-C18 diacid])QILLKQERQKK[Aib]REQAETNVRILERV-NH2 (N-terminus assumed; SMILES CC[C@H](C)[C@H](N)C(=O)N[C@H](C(=O)N[C@@H](CC(C)C)C(=O)N[C@@H](CO)C(=O)N[C@@H](CC(C)C)C(=O)N[C@@H](CC(=O)O)C(=O)N[C@H](C(=O)N1CCC[C@H]1C(=O)N[C@H](C(=O)N[C@@H](CCCCN)C(=O)N[C@@H](CC(C)C)C(=O)N[C@@H](CCCCNC(=O)COCCOCCNC(=O)COCCOCCNC(=O)CC[C@H](NC(=O)CCCCCCCCCCCCCCCCC(=O)O)C(=O)O)C(=O)N[C@@H](CCC(N)=O)C(=O)N[C@H](C(=O)N[C@@H](CC(C)C)C(=O)N[C@@H](CC(C)C)C(=O)N[C@@H](CCCCN)C(=O)N[C@@H](CCC(N)=O)C(=O)N[C@@H](CCC(=O)O)C(=O)N[C@@H](CCCNC(=N)N)C(=O)N[C@@H](CCC(N)=O)C(=O)N[C@@H](CCCCN)C(=O)N[C@@H](CCCCN)C(=O)NC(C)(C)C(=O)N[C@@H](CCCNC(=N)N)C(=O)N[C@@H](CCC(=O)O)C(=O)N[C@@H](CCC(N)=O)C(=O)N[C@@H](C)C(=O)N[C@@H](CCC(=O)O)C(=O)N[C@H](C(=O)N[C@@H](CC(N)=O)C(=O)N[C@H](C(=O)N[C@@H](CCCNC(=N)N)C(=O)N[C@H](C(=O)N[C@@H](CC(C)C)C(=O)N[C@@H](CCC(=O)O)C(=O)N[C@@H](CCCNC(=N)N)C(=O)N[C@H](C(N)=O)C(C)C)[C@@H](C)CC)C(C)C)[C@@H](C)O)[C@@H](C)CC)[C@@H](C)O)C(C)C)C(C)C) [SEQ ID NO: 82] |
| 0.04 nM | – | IVLSLDVPIGLK([γGlu-Palmitoyl])QKLLKQQRQRKERQQAETNARILARV-NH2 (N-terminus assumed; SMILES CCCCCCCCCCCCCCCC(=O)N[C@@H](CCC(=O)NCCCC[C@H](NC(=O)[C@H](CC(C)C)NC(=O)CNC(=O)[C@@H](NC(=O)[C@@H]1CCCN1C(=O)[C@@H](NC(=O)[C@H](CC(=O)O)NC(=O)[C@H](CC(C)C)NC(=O)[C@H](CO)NC(=O)[C@H](CC(C)C)NC(=O)[C@@H](NC(=O)[C@@H](N)[C@@H](C)CC)C(C)C)C(C)C)[C@@H](C)CC)C(=O)N[C@@H](CCC(N)=O)C(=O)N[C@@H](CCCCN)C(=O)N[C@@H](CC(C)C)C(=O)N[C@@H](CC(C)C)C(=O)N[C@@H](CCCCN)C(=O)N[C@@H](CCC(N)=O)C(=O)N[C@@H](CCC(N)=O)C(=O)N[C@@H](CCCNC(=N)N)C(=O)N[C@@H](CCC(N)=O)C(=O)N[C@@H](CCCNC(=N)N)C(=O)N[C@@H](CCCCN)C(=O)N[C@@H](CCC(=O)O)C(=O)N[C@@H](CCCNC(=N)N)C(=O)N[C@@H](CCC(N)=O)C(=O)N[C@@H](CCC(N)=O)C(=O)N[C@@H](C)C(=O)N[C@@H](CCC(=O)O)C(=O)N[C@H](C(=O)N[C@@H](CC(N)=O)C(=O)N[C@@H](C)C(=O)N[C@@H](CCCNC(=N)N)C(=O)N[C@H](C(=O)N[C@@H](CC(C)C)C(=O)N[C@@H](C)C(=O)N[C@@H](CCCNC(=N)N)C(=O)N[C@H](C(N)=O)C(C)C)[C@@H](C)CC)[C@@H](C)O)C(=O)O) [SEQ ID NO: 5] |
| 0.46 nM | – | IVLSLDVPIKLK([AEEA-AEEA-γGlu-C18 diacid])QILLEQEKQK[Aib]QREQAETNKQILAQV-NH2 (N-terminus assumed; SMILES CC[C@H](C)[C@H](N)C(=O)N[C@H](C(=O)N[C@@H](CC(C)C)C(=O)N[C@@H](CO)C(=O)N[C@@H](CC(C)C)C(=O)N[C@@H](CC(=O)O)C(=O)N[C@H](C(=O)N1CCC[C@H]1C(=O)N[C@H](C(=O)N[C@@H](CCCCN)C(=O)N[C@@H](CC(C)C)C(=O)N[C@@H](CCCCNC(=O)COCCOCCNC(=O)COCCOCCNC(=O)CC[C@H](NC(=O)CCCCCCCCCCCCCCCCC(=O)O)C(=O)O)C(=O)N[C@@H](CCC(N)=O)C(=O)N[C@H](C(=O)N[C@@H](CC(C)C)C(=O)N[C@@H](CC(C)C)C(=O)N[C@@H](CCC(=O)O)C(=O)N[C@@H](CCC(N)=O)C(=O)N[C@@H](CCC(=O)O)C(=O)N[C@@H](CCCCN)C(=O)N[C@@H](CCC(N)=O)C(=O)N[C@@H](CCCCN)C(=O)NC(C)(C)C(=O)N[C@@H](CCC(N)=O)C(=O)N[C@@H](CCCNC(=N)N)C(=O)N[C@@H](CCC(=O)O)C(=O)N[C@@H](CCC(N)=O)C(=O)N[C@@H](C)C(=O)N[C@@H](CCC(=O)O)C(=O)N[C@H](C(=O)N[C@@H](CC(N)=O)C(=O)N[C@@H](CCCCN)C(=O)N[C@@H](CCC(N)=O)C(=O)N[C@H](C(=O)N[C@@H](CC(C)C)C(=O)N[C@@H](C)C(=O)N[C@@H](CCC(N)=O)C(=O)N[C@H](C(N)=O)C(C)C)[C@@H](C)CC)[C@@H](C)O)[C@@H](C)CC)[C@@H](C)CC)C(C)C)C(C)C) [SEQ ID NO: 79] |
